Assay results reported in article doi:10.1101/2020.12.22.424058, “Structural basis for the dimerization-dependent CRISPR-Cas12f nuclease” (bioRxiv, 2020).

B1: Un1Cas12f1^D510A (enzyme, UniProt A0A482D308 1-529, looked up)
chain: MAKNTITKTLKLRIVRPYNSAEVEKIVADEKNNREKIALEKNKDKVKEACSKHLKVAAYCTTQVERNACLFCKARKLDDKFYQKLRGQFPDAVFWQEISEIFRQLQKQAAEIYNQSLIELYYEIFIKGKGIANASSVEHYLSDVCYTRAAELFKNAAIASGLRSKIKSNFRLKELKNMKSGLPTTKSDNFPIPLVKQKGGQYTGFEISNHNSDFIIKIPFGRWQVKKEIDKYRPWEKFDFEQVQKSPKPISLLLSTQRRKRNKGWSKDEGTEAEIKKVMNGDYQTSYIEVKRGSKIGEKSAWMLNLSIDVPKIDKGVDPSIIGGIDVGVKSPLVCAINNAFSRYSISDNDLFHFNKKMFARRRILLKKNRHKRAGHGAKNKLKPITILTEKSERFRKKLIERWACEIADFFIKNKVGTVQMENLESMKRKEDSYFNIRLRGFWPYAEMQNKIEFKLKQYGIEIRKVAPNNTSKTCSKCGHLNNYFNFEYRKKNKFPHFKCEKCNFKENAAYNAALNISNPKLKSTKEEP
notes: Cas12f (UnCas12f1, Un1Cas12f1; also known as Cas14), 529 amino acids, 61.5 kDa; plasmid Addgene #112500; Two copies (Cas12f.1 and Cas12f.2) stand in the complex with one sgRNA and the target dsDNA; The model lacks three N-terminal and four C-terminal residues; also called Cas12f D510A mutant; source: E. coli BL21(DE3), purified (Ni-NTA, HiTrap SP HP, Superdex 200); not shown: 10xHis, N-terminal, …
B2: Cas12f (UnCas12f1) (enzyme, UniProt A0A482D308 1-529, looked up)
chain: MAKNTITKTLKLRIVRPYNSAEVEKIVADEKNNREKIALEKNKDKVKEACSKHLKVAAYCTTQVERNACLFCKARKLDDKFYQKLRGQFPDAVFWQEISEIFRQLQKQAAEIYNQSLIELYYEIFIKGKGIANASSVEHYLSDVCYTRAAELFKNAAIASGLRSKIKSNFRLKELKNMKSGLPTTKSDNFPIPLVKQKGGQYTGFEISNHNSDFIIKIPFGRWQVKKEIDKYRPWEKFDFEQVQKSPKPISLLLSTQRRKRNKGWSKDEGTEAEIKKVMNGDYQTSYIEVKRGSKIGEKSAWMLNLSIDVPKIDKGVDPSIIGGIDVGVKSPLVCAINNAFSRYSISDNDLFHFNKKMFARRRILLKKNRHKRAGHGAKNKLKPITILTEKSERFRKKLIERWACEIADFFIKNKVGTVQMENLESMKRKEDSYFNIRLRGFWPYAEMQNKIEFKLKQYGIEIRKVAPNNTSKTCSKCGHLNNYFNFEYRKKNKFPHFKCEKCNFKENADYNAALNISNPKLKSTKEEP
notes: Cas12f (UnCas12f1, Un1Cas12f1; also known as Cas14), 529 amino acids, 61.5 kDa; plasmid Addgene #112500; The methods say only 'Cas12f proteins' for the binary complex with sgRNA; also called Un1Cas12f1; Cas14; source: E. coli BL21(DE3), purified (Ni-NTA, HiTrap SP HP, Superdex 200); not shown: 10xHis, N-terminal, cleaved; MBP, N-terminal, cleaved

Columns and labels:
[1] = target: the molecule itself; assay: cryo-EM structure; Cas12f D510A with sgRNA (222 nt) and target dsDNA (60 bp, TTTA PAM) at 1:1.2:1.3, 37°C, then SEC (Superdex 200) in 25 mM Tris-HCl pH 7.6, 150 mM NaCl, 2 mM DTT, 1 mM MgCl2; ternary complex, 3.1 Å; the two Cas12f copies are bound to one sgRNA
[2] = target: the molecule itself; assay: cryo-EM structure; Cas12f with sgRNA at 1:1.2, 37°C for 30 min in 25 mM Tris-HCl pH 7.6, 150 mM NaCl, 2 mM DTT, 1 mM MgCl2; binary complex, 3.9 Å; the two Cas12f copies are bound to one sgRNA

Protein	stoichiometry N [1]	binding result [2]
B1	2	
B2		binds
